Source: patent US20240261333A1 (published 2024)

Tests used:
UBAP2L = target: T1, UBAP2L (human, UniProt Q14157 1-1087); test: co-IP, anti-FLAG, lysate of cells with C-FLAG B3GNT2; mass spectrometry
T1 construct: also called NP_055662.3 (+3)
T1 sequence (looked up): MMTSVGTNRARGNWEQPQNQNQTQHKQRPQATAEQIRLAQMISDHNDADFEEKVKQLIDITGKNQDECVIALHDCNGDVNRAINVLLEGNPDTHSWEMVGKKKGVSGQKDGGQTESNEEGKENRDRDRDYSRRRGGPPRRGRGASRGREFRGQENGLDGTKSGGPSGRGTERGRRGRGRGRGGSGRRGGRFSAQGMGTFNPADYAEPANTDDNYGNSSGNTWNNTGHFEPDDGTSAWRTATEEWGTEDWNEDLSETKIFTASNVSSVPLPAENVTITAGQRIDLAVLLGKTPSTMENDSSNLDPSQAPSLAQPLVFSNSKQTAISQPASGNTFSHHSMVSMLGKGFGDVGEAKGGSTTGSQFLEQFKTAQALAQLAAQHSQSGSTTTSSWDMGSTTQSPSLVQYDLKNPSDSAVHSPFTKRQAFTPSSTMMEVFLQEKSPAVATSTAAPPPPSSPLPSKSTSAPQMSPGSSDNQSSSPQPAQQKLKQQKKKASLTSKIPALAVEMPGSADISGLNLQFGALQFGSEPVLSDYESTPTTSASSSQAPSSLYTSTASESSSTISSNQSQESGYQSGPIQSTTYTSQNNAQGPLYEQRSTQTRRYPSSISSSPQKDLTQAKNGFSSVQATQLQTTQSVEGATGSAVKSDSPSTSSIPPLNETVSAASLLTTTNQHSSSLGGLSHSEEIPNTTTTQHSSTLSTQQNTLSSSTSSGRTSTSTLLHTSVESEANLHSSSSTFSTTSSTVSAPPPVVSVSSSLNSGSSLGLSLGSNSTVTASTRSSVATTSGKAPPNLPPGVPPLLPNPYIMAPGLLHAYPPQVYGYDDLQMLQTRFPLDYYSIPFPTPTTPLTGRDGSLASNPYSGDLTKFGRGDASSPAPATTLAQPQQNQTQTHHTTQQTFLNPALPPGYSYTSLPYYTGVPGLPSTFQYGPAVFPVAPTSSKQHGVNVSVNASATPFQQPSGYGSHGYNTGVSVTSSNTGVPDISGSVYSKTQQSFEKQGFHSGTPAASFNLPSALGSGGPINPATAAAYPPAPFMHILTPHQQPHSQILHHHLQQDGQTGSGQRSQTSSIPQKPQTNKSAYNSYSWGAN
Protocol: (§1) Cells were plated in 10-cm cell culture dishes and grown to 60-80% confluency. For each condition, two biological replicates were harvested for co-IP. Cells were washed with PBS and 4 mL of lysis buffer (20 mM HEPES, 1% Triton X-100, 150 mM NaCl, 1 mM EDTA, and 10% glycerol) containing protease inhibitor cocktail was added. Cells were scraped and lysate was incubated at 4° C. under rotary agitation for 1 h. Lysate was centrifuged at 14,000×g for 10 min at 4° C. Supernatant was transferred to a new tube and an aliquot was taken as the input. […] For Western blots, 10 μg/mL Chicken Anti-FLAG (Aves labs ET-DY100) and IgY control (R&D Systems AB-101-C) antibodies were biotinylated (Thermo Fisher Scientific 90407) and added to the respective conditions. Lysates with antibodies were incubated at 4° C. under rotary agitation overnight. For each mL of lysate, 50 μL of Pierce Protein A/G Magnetic Beads (Mass spectrometry; Thermo Fisher Scientific 88803) or Pierce Streptavidin Magnetic Beads (Western blot; Thermo Fisher Scientific 88817) was washed twice with lysis buffer. Lysates with antibodies were added to the beads and incubated at 4° C. under rotary agitation for 4 h. Beads were washed with lysis buffer 3 times and resuspended in lysis buffer for storage.
(§2) Magnetic beads were resuspended in 100 mM Tris pH 7.8, reduced, alkylated and digested with trypsin at 37° ° C. overnight. This solution was subjected to solid phase extraction to concentrate the peptides and remove unwanted reagents followed by injection onto a Shimadzu HPLC with fraction collector. Eight fractions were collected and after concentration were injected on a Waters NanoAcquity HPLC equipped with a self-packed Aeris 3 μm C18 analytical column 0.075 mm by 20 cm, (Phenomenex). Peptides were eluted using standard reverse-phase gradients. The effluent from the column was analyzed using a Thermo Orbitrap Elite mass spectrometer (nanospray configuration) operated in a data dependent manner for 54 minutes. The resulting fragmentation spectra were correlated against the known database using Proteome Discover 1.4 (Thermo Fisher Scientific).

CAT = target: T2, CAT (human, UniProt P04040 2-527); test: as above
T2 construct: also called NP_001743.1
T2 sequence (looked up): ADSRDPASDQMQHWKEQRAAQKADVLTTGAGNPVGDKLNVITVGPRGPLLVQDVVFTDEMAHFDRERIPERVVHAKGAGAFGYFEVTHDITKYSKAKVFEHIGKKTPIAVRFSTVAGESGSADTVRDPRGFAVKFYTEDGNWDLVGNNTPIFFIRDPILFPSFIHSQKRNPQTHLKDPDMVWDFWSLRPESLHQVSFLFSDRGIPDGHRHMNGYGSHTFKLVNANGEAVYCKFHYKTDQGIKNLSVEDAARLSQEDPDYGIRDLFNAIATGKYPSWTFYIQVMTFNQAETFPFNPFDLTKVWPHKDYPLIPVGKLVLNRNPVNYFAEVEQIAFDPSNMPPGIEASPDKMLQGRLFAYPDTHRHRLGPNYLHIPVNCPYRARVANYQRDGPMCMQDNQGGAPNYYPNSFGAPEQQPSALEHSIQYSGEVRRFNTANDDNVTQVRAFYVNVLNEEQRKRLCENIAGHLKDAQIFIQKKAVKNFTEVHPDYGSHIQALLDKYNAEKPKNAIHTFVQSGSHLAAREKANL
Protocol: as §1, §2

- co-IP mass spectrometry count (UBAP2L): 19
- co-IP mass spectrometry count (CAT): 0
B1: C-terminal FLAG tagged B3GNT2 (enzyme, human, UniProt Q9NY97 1-397, looked up)
chain: MSVGRRRIKLLGILMMANVFIYFIMEVSKSSSQEKNGKGEVIIPKEKFWKISTPPEAYWNREQEKLNRQYNPILSMLTNQTGEAGRLSNISHLNYCEPDLRVTSVVTGFNNLPDRFKDFLLYLRCRNYSLLIDQPDKCAKKPFLLLAIKSLTPHFARRQAIRESWGQESNAGNQTVVRVFLLGQTPPEDNHPDLSDMLKFESEKHQDILMWNYRDTFFNLSLKEVLFLRWVSTSCPDTEFVFKGDDDVFVNTHHILNYLNSLSKTKAKDLFIGDVIHNAGPHRDKKLKYYIPEVVYSGLYPPYAGGGGFLYSGHLALRLYHITDQVHLYPIDDVYTGMCLQKLGLVPEKHKGFRTFDIEEKNKNNICSYVDLMLVHSRKPQEMIDIWSQLQSAHLKC
notes: Overexpressed in cells and pulled down from the lysate with mouse anti-FLAG antibody; also called C-FLAG B3GNT2; C-term flag; not shown: C-terminal FLAG tag
